The record followed here is paper PMC4600729.

Assay [1] has as its target T1, taxol-stabilized microtubules (polymer of alpha/beta-tubulin), immobilized. Put plainly: single-molecule TIRF microscopy; spiking experiment, crowded conditions: pM GFP-labelled motor mixed with 15-25 nM unlabelled motor; binding durations at plus ends of taxol-stabilized microtubules.
Assay [2] concerns the target dynamic microtubules growing from surface-immobilized GMPCPP seeds (polymer of alpha/beta-tubulin). In words: TIRF microscopy; GFP-labelled motors (20-30 nM, or 50 pM for single molecules) on microtubules growing from immobilized GMPCPP seeds in 10 or 20 μM unlabelled tubulin, 1 mM ATP.
Assay [3] concerns the target T1, taxol-stabilized microtubules (polymer …). Put plainly: single-molecule TIRF microscopy; GFP-labelled motor (25 pM) in 1 mM ATP on immobilized taxol-stabilized microtubules; pause lifetimes at plus ends, exponential fit; BRB80 pH 6.8.

T1 sequence (P68363 whole entry, chain 1 of 2): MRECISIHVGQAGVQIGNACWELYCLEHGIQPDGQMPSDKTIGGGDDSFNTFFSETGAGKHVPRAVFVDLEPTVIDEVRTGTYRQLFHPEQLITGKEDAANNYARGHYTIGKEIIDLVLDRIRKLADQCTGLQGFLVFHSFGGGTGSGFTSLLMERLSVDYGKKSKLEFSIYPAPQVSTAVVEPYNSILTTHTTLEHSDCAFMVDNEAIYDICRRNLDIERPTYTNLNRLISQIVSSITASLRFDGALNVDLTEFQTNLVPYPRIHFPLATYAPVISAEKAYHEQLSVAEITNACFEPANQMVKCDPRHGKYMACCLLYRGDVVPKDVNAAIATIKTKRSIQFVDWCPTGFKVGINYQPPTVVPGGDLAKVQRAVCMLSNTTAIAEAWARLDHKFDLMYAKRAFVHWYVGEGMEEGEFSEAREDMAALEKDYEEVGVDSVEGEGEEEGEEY
T1 sequence (A8K068 whole entry, chain 2 of 2, further chain): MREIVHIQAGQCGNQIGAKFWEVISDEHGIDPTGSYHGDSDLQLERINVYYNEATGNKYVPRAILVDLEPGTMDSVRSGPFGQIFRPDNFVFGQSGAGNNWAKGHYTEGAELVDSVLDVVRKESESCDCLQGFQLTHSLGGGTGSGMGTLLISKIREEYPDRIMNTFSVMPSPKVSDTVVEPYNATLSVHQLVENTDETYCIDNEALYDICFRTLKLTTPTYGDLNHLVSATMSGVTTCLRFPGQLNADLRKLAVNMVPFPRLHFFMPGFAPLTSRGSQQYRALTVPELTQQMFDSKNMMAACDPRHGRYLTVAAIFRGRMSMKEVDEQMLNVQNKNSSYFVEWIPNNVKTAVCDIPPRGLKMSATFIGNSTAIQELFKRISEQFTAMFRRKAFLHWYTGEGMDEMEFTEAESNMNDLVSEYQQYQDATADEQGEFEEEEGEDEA
dynamic microtubules growing from surface-immobilized GMPCPP seeds (polymer of alpha/beta-tubulin), sequence (chain, as listed by the source, chain 1 of 2): as the sequence (P68363 whole entry, chain 1 of 2) above
dynamic microtubules growing from surface-immobilized GMPCPP seeds (polymer of alpha/beta-tubulin), sequence (chain, as listed by the source, chain 2 of 2): as the sequence (A8K068 whole entry, chain 2 of 2, further chain) above

B1: Kin5_14GFP (dimeric kinesin-5 as Kin5_18 but with the neck linker shortened to 14 residues, GFP-tagged) (protein)
chain: MSSQNSFMASKKEDKGKNIQVVVRCRPFNQLERKASSHSVLECDSQRKEVYVRTGEVNDKLGKKTYTFDMVFGPAAKQIEVYRSVVCPILDEVIMGYNCTIFAYGQTGTGKTFTMEGERSSDEEFTWEQDPLAGIIPRTLHQIFEKLSENGTEFSVKVSLLEIYNEELFDLLSPSPDVGERLQMFDDPRNKRGVIIKGLEEISVHNKDEVYHILERGAARRKTASTLMNAYSSRSHSVFSVTIHMKETTVDGEELVKIGKLNLVDLAGSENIGRSGAVDKRAREAGNINQSLLTLGRVITALVERTPHIPYRESKLTRILQDSLGGRTKTSIIATVSPASINLEETVSTLDYANRAKSIMNKPEVNQKLTAEEWKRRYEKEKEKNARLKGKVEKLEIELARWRAGETVKAEEQINMEDLMEASTPNLEVEAAQTAAAEAALAAQRTALANMSASVAVNEQARLATECERLYQQLDDKDEEINQQSQYAEQLKEQVMEQEELIANARREYETLQSEMARIQQENESAKEEVKEVLQALEELAVNYDQKSQEIDNKNKDIDALNEELQQKQSVFNAASTELQQLKDM
modifications: not checked
Consider B1, for which, in assay [1], the end duration at plus ends under crowded conditions is 2.61 s. Besides, in assay [2], the mean residence time at dynamic plus ends is 7.04 s. Also, in assay [3], the mean pause duration at plus ends came to 7.2 s.
